# In the DeepSol protein solubility set:
# Assay: soluble on expression in E. coli; label from the status in PepcDB or PDB records
row,Sequence,soluble on expression in E. coli
1,TEKARDLFDKLMTQIQLDDTAKEHPLIQNGRIDKVIVHQQSRLWEFHLSFDELMPVMLYQTFMQQLELAFQQIAQVSVQITTNQTTFTEEQLTDYWQLALLNSQCNTPLVQKVLKTQTPQFEDRKIILPVDNEAVIPYLKQQYLPIIEELYFSYGF,not soluble
2,TEKKYIVALDQGTTSSRAVVMDHDANIISVSQREFEQIYPKPGWVEHDPMEIWATQSSTLVEVLAKADISSDQIAAIGITNQRETTIVWEKETGKPIYNAIVWQCRRTAEICEHLKRDGLEDYIRSNTGLVIDPYFSGTKVKWILDHVEGSRERARRGELLFGTVDTWLIWKMTQGRVHVTDYTNASRTMLFNIHTLDWDDKMLEVLDIPREMLPEVRRSSEVYGQTNIDGKGGTRIPISGIAGDQQAALFGQLCVKEGMAKNTYGTGCFMLMNTGEKAVKSENGLLTTIACGPTGEVNYALEGAVFMAGASIQWLRDEMKLINDAYDSEYFATKVQNTNGVYVVPAFTGLGAPYWDPYARGAIFGLTRGVNANHIIRATLESIAYQTRDVLEAMQADSGIRLHALRVDGGAVANNFLMQFQSDILGTRVERPEVREVTALGAAYLAGLAVGFWQNLDELQEKAVIEREFRPGIETTERNYRYAGWKKAVKRAMAWEEHDQLYTRASQPELAPEDPEDLEHHHHHH,soluble
3,TFKHSRDILGRTFDILVIDLSYDYSPNDLGRIIETVRGGGLIFVLTNPFEKWKDMWTGFHKSLVTPPYTIEDVKKRFNRRLIRKFTEHKGIYIVNTDRMSIERKPG,not soluble
4,THCHLKNGEYHIDLIPQRLRGEIASFDIHVPETGELIVEQGRRITARHIKQMEKSQMQDLVVPRDYLIGKTLAKNIIDTSTGEFLAQANDEITEELLDAMANHG,not soluble
5,THSEEEIKIIASESQKGGVLDEFETEIIRNAVDFSDTVAKEIMTPRKDMICLNKQKSYEENMQIICEHKHTRFPYIDGSKDTILGMIHIRDIIQNELNHKSQNLDTFVKPLILVPENISISKVLVMMNKERSHTALVVDEYGGTAGILTMEDIMEEIIGEIKSEHEEDSYKKLA,soluble
6,TILVAIANDSVSPAVIDTAVRLADGLDEELYVVHLVDENTADGTAMQLRDEMRDRFRDATVVATVAIEHVGRSAMRSGTRIGNELLELAADVDVQHIVMGHEPKGLAGRLREGDAAVAVIDAADVPVTIVPEG,not soluble
7,TKDFSWDTTLSFTWSKEKINSLPTGDLIKENLFEGQPIHALYDYKYAGIWGSNVPQETLDAYGVKPGWVKIETLDKDGDGGVHKYGEDDRQILGHTNPDVILGLNNTLTYKNFDLSIFAMARYGQTIKSSLIGWYRASSNYSINQPAGVDYWTENNQGAYYPVPGSGDEQKVMSALTYRDGSFIKVKNITLGYTLPQSVSRKVLMEKCRFYATAYNPFLYVKDKELRGTDPETNGSDAFPLYKQFVFGINVTF,not soluble
8,TKTEALTAEEAAKQYTNSLVEKALKAEKVYATYTQEQVDKIVAAMALAGSEASLQLAKEAHDETGRGVVEDKDTKNHFATEYVYERIKNEKTVGIIGEDKVAGSIEIAAPLGVLAGIVPTTNPTSTTMFKILVALKTRNAIVFAFHPAAQKCSAHAAQILYDAAVKAGAPENIVQWIETPSIANTGALISNKGIASILATGGPGMVNAALKSGNPSMGVGAGNGAVYVDATANLERAVEDLLLSKRFDNGMICATE,not soluble
9,TLAAKAAEIHPTSLDTRLDVAAAPAELQQVAQSFNAMLERLDDGYQRLQQFSADLAHEIRTPIGSLMGHGQVALRQPRSNEEYQALIASNQEELERIARMVESILFLARADDVRAAVERSRLDLGEELRRQAEYFEGLAEERGLSLDVQVSGQLRADPQLFRRALSNLLANAIRYASADSLIEVRGLRRSGEFLLSVENACDRLPAEPLSRLFDRFYRGDAARSDAQSSGLGLAIVQAIMRLHGGRAEASAPAPGRIRFDLAFPAQD,not soluble
10,TPDFGFTLRGNFTYSKNKVQNWEQAYLEYPYLEYNNFPYNSIRGYQAVGLFKDEDDIKYSPKQTFGEVMPGDIKYKDINGDGMVDKLDMVPLTHSTYPLLMYGLGAEIRYKNLTLGVLFKGTGKTSFFYVGQKTTVNDETRLNGMGYMPFFEGNTGNVLTLAANPVNRWIPRDYAIAHGIDPSLAENPNARFPRLQYGNNSNNSQLSTFWQGDSRYIRLQEITLNYHLATAFLRRIGVSSLDIQFVGNNLYVWDKVKLFDPEQARWNGRVYPIPSTYSLQLYVNL,not soluble
11,TPTVDHVLLNIALNLSSNRSHEQQYQNLIDGVAQVFPCDASCLFIFDEDGFLTPVAVKGLSSSVLGRRYFPKAHPRLDAIIHSREPVRFDADCSLPDPFDGTLLTEDQCIDVHDCMGFSLYVEGQLVGALTMDALTVGAFDDIDPVAIETFAALTAATLRNIAQLKALKAQNQKQKSVTQTLIQQARSQHG,not soluble
12,TQYWDFCFREPDVAATDQEYREELDRLFVQAVKRQLVTDVELGSYLSGGMDSGSIAAVAAAEHPYIKTFTCGFDLNSASGIELGFDERSKAEYMSYCFKTEHYEMVLKAGDMERILPHVACHLEEPRVGQSYPNFFAAKLASRFVKVVLSGAGGDELFAGYPWRYYRAVVNDDFEHYVDKYYNFWQRLLPNSELKRVFAPIAGEVEHVWTRDIFRNVFRHHADQLYRPEDYINHSLYFEAKTFLHGLLVVEDKLSMAHGLETRVPFLDNDLVEFAMRCPIRLKLNNLAEVVKINENETGNKVRKFFEKNRDGKTILREVMNHRLPADISKAEKQGFSAPDASWFKGESLEFVRRKLLDGHSPLYEIMDAATVRELVNEHLGGIRNRRLLIWSLLSVDAWMRQT,not soluble
13,TRMAPVIMVPGSSASQNRFDSLITELGKETPKKHSVLKLTVQTDGTIKYSGSIAANDNEPFIVIGFANNRDGKANIDKQAVWLNTAFKALVKTYHFNHFYALGHSNGGLIWTLFLERYLKESPKVHIDRLMTIASPYNMESTSTTAKTSMFKELYRYRTGLPESLTVYSIAGTENYTSDGTVPYNSVNYGKYIFQDQVKHFTEITVTGANTAHSDLPQNKQIVSLIRQYLLAETMPDK,not soluble
14,TRVYDESGKEVGKLFGQKGTFVELDNISPYIQDAVISTEDRGFYQHKGYSIKGIARAVVGKLTFGKIGGGGGGSTITQQLAKNAYLTQEQTLDRKARELFLAIEIEKKYSKKDILAMYLNNSYFGNGVWGVQDAARKYFGVDASQVTVGEAATLAGMLKGPGIYNPIDYI,not soluble
15,TSKQRYSGKVHLCVARYSYNPFDGPNENPEAELPLTAGKYLYVYGDMDEDGFYEGELLDGQRGLVPSNFVDFVQDNESRLAST,soluble
16,TSSLHPTRGKLLKRFAQIGPYIREQQCQESQFFFDCLAVCVNKKVTPEKREFWGWWMELERNGEQLIYYYQVGLFDKNGDWVNQVISKKDVIESIHETLIRFHDFLQAAVSELEMTLVPDEKMSNFPLPL,soluble
17,TTCCPSIVARSNFNVCRLPGTPEALCATYTGCIIIPGATCPGDYAN,soluble
18,TTKKRVFHFGKGKSEGNKTMKELLGGKGANLAEMASIGLSVPPGFTVSTEACQQYQDAGCALPAGLWAEIVDGLQWVEEYMGATLGDPQRPLLLSVRSGAAVSMPGMMDTVLNLGLNDEVAAGLAAKSGERFAYDSFRRFLDMFGNVVMDIPRSLFEEKLEHMKESKGLKNDTDLTASDLKELVGQYKEVYLSAKGEPFPSDPKKQLELAVLAVFNSWESPRAKKYRSINQITGLRGTAVNVQCMVFGNMGNTSGTGVLFTRNPNTGEKKLYGEFLVNAQGEDVVAGIRTPEDLDAMKNLMPQAYDELVENCNILESHYKEMQDIEFTVQENRLWMLQCRTGKRTGKSAVKIAVDMVNEGLVEPRSAIKMVEPGHLDQLLHPQFENPSAYKDQVIATGLPASPGAAVGQVVFTAEDAEAWHSQGKAAILVRAETSPEDVGGMHAAVGILTERGGMTSHAAVVARGWGKCCVSGCSGIRVNDAEKLVTIGGHVLREGEWLSLNGSTGEVILGKQPLSPPALSGDLGTFMAWVDDVRKLKVLANADTPDDALTARNNGAQGIGLCRTEHMFFASDERIKAVRQMIMAPTLELRQQALDRLLPYQRSDFEGIFRAMDGLPVTIRLLDPPLHEFLPEGNIEDIVSELCAETGANQEDALARIEKLSEVNPMLGFRGCRLGISYPELTEMQARAIFEAAIAMTNQGVQVFPEIMVPLVGTPQELGHQVTLIRQVAEKVFANVGKTIGYKVGTMIEIPRAALVADEIAEQAEFFSFGTNDLTQMTFGYSRDDVGKFIPVYLAQGILQHDPFEVLDQRGVGELVKFATERGRKARPNLKVGICGEHGGEPSSVAFFAKAGLDYVSCSPFRVPIARLAAAQVLV,soluble
